Results from patent US20100204091.

Target: T1, SIVA2
T1 chain: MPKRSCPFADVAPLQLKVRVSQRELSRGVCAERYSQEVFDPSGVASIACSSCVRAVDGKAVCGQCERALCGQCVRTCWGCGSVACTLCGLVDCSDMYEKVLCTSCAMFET

B1: NF-κB-inducing kinase, NIK, (MAP3K14) (protein)
chain: MAVMEMACPGAPGSAVGQQKELPKAKEKTPPLGKKQSSVYKLEAVEKSPVFCGKWEILNDVITKGTAKEGSEAGPAAISIIAQAECENSQEFSPTFSERIFIAGSKQYSQSESLDQIPNNVAHATEGKMARVCWKGKRRSKARKKRKKKSSKSLAHAGVALAKPLPRTPEQESCTIPVQEDESPLGAPYVRNTPQFTKPLKEPGLGQLCFKQLGEGLRPALPRSELHKLISPLQCLNHVWKLHHPQDGGPLPLPTHPFPYSRLPHPFPFHPLQPWKPHPLESFLGKLACVDSQKPLPDPHLSKLACVDSPKPLPGPHLEPSCLSRGAHEKFSVEEYLVHALQGSVSSGQAHSLTSLAKTWAARGSRSREPSPKTEDNEGVLLTEKLKPVDYEYREEVHWATHQLRLGRGSFGEVHRMEDKQTGFQCAVKKVRLEVFRAEELMACAGLTSPRIVPLYGAVREGPWVNIFMELLEGGSLGQLVKEQGCLPEDRALYYLGQALEGLEYLHSRRILHGDVKADNVLLSSDGSHAALCDFGHAVCLQPDGLGKSLLTGDYIPGTETHMAPEVVLGRSCDAKVDVWSSCCMMLHMLNGCHPWTQFFRGPLCLKIASEPPPVREIPPSCAPLTAQAIQEGLRKEPIHRVSAAELGGKVNRALQQVGGLKSPWRGEYKEPRHPPPNQANYHQTLHAQPRELSPRAPGPRPAEETTGRAPKLQPPLPPEPPEPNKSPPLTLSKEESGMWEPLPLSSLEPAPARNPSSPERKATVPEQELQQLEIELFLNSLSQPFSLEEQEQILSCLSIDSLSLSDDSEKNPSKASQSSRDTLSSGVHSWSSQAEARSSSWNMVLARGRPTDTPSYFNGVKVQIQSLNGEHLHIREFHRVKVGDIATGISSQIPAAAFSLVTKDGQPVRYDMEVPDSGIDLQCTLAPDGSFAWSWRVKHGQLENRP
in vitro kinase assay (phosphorylation of SIVA2): NIK readily phosphorylated SIVA2
